The values that follow come from patent publication US6187552A, “Method for identifying inhibitors of JAK2/cytokine receptor binding” (Pharmacia & Upjohn Company, priority 1998, dated 2001).

In experiment [1] the target is T1, JAK2 (Homo sapiens, UniProt O60674). As to the kind of experiment: SPA: binding of 3H-JAK2 to βc peptides on streptavidin-coated beads. Details: NJAK2 = N-terminal 294 residues. As for the experimental part: Cells were lysed by dounce homogenization (20 strokes) in 1X phosphate buffered saline (PBS), pH 7.5 at 4 C. […] For some experiments, the JAK2 protein (0.15 mg/ml), aliquoted into 7 equivalent tubes, was then subjected to ultracentrifugation in an Airfuge using an A-110 rotor at an average of 164,000×g for a period of 6 hours at ambient temperature. At zero time, and at each subsequent hour thereafter, a tube of JAK2 was removed for analyses (ELISA, SDS polyacrylamide gel electrophoresis, and Western blotting).
T1 sequence (O60674 3-1132): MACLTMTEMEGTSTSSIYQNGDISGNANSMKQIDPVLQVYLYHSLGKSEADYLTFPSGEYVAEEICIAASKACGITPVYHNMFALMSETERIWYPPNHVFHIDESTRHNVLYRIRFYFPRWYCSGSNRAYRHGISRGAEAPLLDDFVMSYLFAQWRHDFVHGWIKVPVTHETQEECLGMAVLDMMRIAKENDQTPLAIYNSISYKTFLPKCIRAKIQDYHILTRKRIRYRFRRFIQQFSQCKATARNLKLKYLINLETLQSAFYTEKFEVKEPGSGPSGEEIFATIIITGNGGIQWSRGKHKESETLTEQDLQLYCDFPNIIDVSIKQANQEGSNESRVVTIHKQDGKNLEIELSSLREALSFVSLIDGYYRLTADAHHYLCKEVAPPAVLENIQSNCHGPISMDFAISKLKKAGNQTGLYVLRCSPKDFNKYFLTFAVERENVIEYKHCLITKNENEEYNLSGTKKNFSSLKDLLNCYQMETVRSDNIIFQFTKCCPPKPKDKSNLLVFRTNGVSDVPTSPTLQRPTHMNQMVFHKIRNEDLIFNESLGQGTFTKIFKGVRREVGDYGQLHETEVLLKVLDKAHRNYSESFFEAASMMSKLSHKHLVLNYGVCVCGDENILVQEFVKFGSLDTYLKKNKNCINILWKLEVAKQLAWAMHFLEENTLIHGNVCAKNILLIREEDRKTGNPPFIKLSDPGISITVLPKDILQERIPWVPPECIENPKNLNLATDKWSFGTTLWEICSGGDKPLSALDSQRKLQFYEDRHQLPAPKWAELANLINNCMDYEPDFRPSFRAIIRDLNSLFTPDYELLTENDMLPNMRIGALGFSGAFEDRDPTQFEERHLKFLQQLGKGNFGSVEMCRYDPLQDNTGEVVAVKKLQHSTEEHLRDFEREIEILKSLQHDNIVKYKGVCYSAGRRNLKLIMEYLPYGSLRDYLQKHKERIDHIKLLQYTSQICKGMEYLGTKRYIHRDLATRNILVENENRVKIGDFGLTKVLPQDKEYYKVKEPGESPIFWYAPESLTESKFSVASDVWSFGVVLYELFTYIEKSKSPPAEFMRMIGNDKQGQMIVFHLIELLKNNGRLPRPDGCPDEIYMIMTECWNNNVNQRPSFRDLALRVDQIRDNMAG
(§1) Three different labeling reactions were done using ^3 H-N-succinimidyl propionate (^3 H-NSP, Amersham Life Sciences, Arlington Heights, Ill.). One reaction was done using 0.5 mg of purified JAK2 in 0.1 M borate buffer, pH 8.5, with a reaction volume of 150 μl and an incubation time of one hour on ice with dried 1 mCi of ^3 H-NSP (toluene was removed using a stream of nitrogen). […] Another reaction was done using the buffer 0.1 M sodium phosphate, pH 8.0, and a similar volume as before. One milligram of JAK2 in 1.2 ml of phosphate buffer was incubated for three hours on ice. […] A third reaction was done using 2.5 mg of purified JAK2 in 0.1 m sodium phosphate, pH 8.0, and 2.5 ml volume. It was incubated with 5 mCi of dried ^3 H-NSP on ice for 2 hours. […] All three products were separated from unincorporated label using PD-10 columns (Pharmacia Biotech, Uppsala, Sweden) pre-equilibrated with 20 mM Tris, pH 8.0, 0.15 M NaCl.
(§2) Triplicate reactions were done for each data point. The buffer used in all the assays was 35 mM sodium phosphate, 150 mM NaCl, pH 8.0, 10% glycerol. Biotinylated peptides were allowed to bind to streptavidin-coated SPA beads (Amersham Life Sciences, Arlington Heights, Ill., catalog # RPNQ0006) with either less than saturating peptide or excess peptide. […] Under less than saturating conditions, beads and 40 pmole peptide were added to the assay plate well and incubated for one hour with gentle shaking on a Titer plate shaker (Lab-Line Instruments, Inc., Melrose Park, Ill.) at 600 rpm and not washed. […] The plates were then read on a MicroBeta (Wallac) set to read scintillation due to tritium.
(§3) Either ^3 H-JAK2 or ^3 H-NJAK2 was added to the wells and, after incubation, the signals measured. […] A competition reaction was also done by adding 5 to 10-fold excess unlabeled JAK2 in those reactions.

In experiment [2] the target is NJAK2 (N-terminal portion of JAK2) (Homo sapiens, UniProt O60674). Put plainly: SPA: binding of 3H-NJAK2 (N-terminal JAK2) to βc peptides on streptavidin-coated beads. As to conditions: less than saturating peptide, 40 pmole per reaction, FIG. 12B. The method, then: as §1, §2, §3
Chain of NJAK2 (N-terminal portion of JAK2) (O60674 1-294 S277G): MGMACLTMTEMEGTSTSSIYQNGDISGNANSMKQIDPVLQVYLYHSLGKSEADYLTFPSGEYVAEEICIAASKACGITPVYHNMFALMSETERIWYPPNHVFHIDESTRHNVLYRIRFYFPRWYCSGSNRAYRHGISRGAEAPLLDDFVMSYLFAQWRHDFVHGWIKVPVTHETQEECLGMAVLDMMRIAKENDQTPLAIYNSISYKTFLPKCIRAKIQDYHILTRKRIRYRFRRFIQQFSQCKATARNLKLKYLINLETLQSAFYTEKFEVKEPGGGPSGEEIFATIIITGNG
The target of experiment [3] is T1, JAK2. Put plainly: SPA competition: soluble peptide/streptavidin against peptide 4-coated SPA beads for binding 3H-JAK2. Details: Y918N clone error corrected to Tyr. The text has this: FIGS. 20 A and B illustrate a test of the ability of streptavidin-peptide 4 complexes to compete for binding of 3H-JAK2 to peptide 4-coated SPA beads. For A, #0 is a beads only control. In all reactions with peptide bound to beads, excess peptide 4 [SEQ ID NO:14] was bound to beads before adding soluble samples. The reaction in #1 is peptide 4 [SEQ ID NO:14] bound to beads only, no added peptide 4 [SEQ ID NO:14] or streptavidin. #2 contained soluble peptide 4/streptavidin at a ratio of 1:1. #3 contained soluble peptide 4/streptavidin at a ratio of 4:1. #4 contained 20 μM peptide 4 added as soluble peptide 4. #5 contained 20 μM streptavidin. […] For B, 0 is a beads only control. In all reactions with peptide bound to beads, excess peptide 4 was bound to beads in the presence of 1 mg/ml κ-casein (as described in Materials and Methods of Example 8) before adding soluble samples. The reaction in #1 is peptide 4 bound to beads only, no added peptide 4 or streptavidin. #2 contained peptide 1/streptavidin at a ratio of 4:1 and #3 contained peptide 4/streptavidin at a ratio of 4:1.
The assay was set up in 96-well plates (Wallac, catalog # 1450-401), Turku, Finland, using a total assay volume of 200, μl/well. Triplicate reactions were done for each data point. The buffer used in all the assays was 35 mM sodium phosphate, 150 mM NaCl, pH 8.0, 10% glycerol. Biotinylated peptides were allowed to bind to streptavidin-coated SPA beads (Amersham Life Sciences, Arlington Heights, Ill., catalog # RPNQ0006) with either less than saturating peptide or excess peptide. For 400 μg SPA beads used per reaction, there was the capacity to bind 49 pmole of biotin (given the binding capacity of 121 pmole biotin/mg bead). Under less than saturating conditions, beads and 40 pmole peptide were added to the assay plate well and incubated for one hour with gentle shaking on a Titer plate shaker (Lab-Line Instruments, Inc., Melrose Park, Ill.) at 600 rpm and not washed. Under conditions of excess peptide, beads and peptide (80 pmole of peptide per 400 μg of bead) were mixed in batch with or without 1 mg/ml K-casein added as described in Results and Discussion, incubated for one hour with rotation, washed three times with buffer and aliquotted into wells. ^3 H-JAK2 or ^3 H-NJAK2 and any other components to be tested were added and the reactions were mixed and incubated for one hour in the dark at room temperature. The plates were then read on a MicroBeta (Wallac) set to read scintillation due to tritium.
The ability of excess peptide 4 [SEQ ID NO: 14] to compete for binding of JAK2 was tested. Biotinylated peptide 4 was bound to streptavidin in solution to mimic the conditions of the peptide 4 bound to the beads. It was used at a ratio of 1:1 (peptide 4: streptavidin) and at a ratio of 4:1 to see whether having multiple peptides on one streptavidin molecule might do a better job of binding JAK2 and therefore of competing. […] This could be due to the free streptavidin pulling some of the peptide 4 [SEQ ID NO: 14] off the bead. […] Another SPA was done using peptide 4 [SEQ ID NO:14] or peptide 1 [SEQ ID NO:11] bound to streptavidin at a ratio of 4:1. […] The results are shown in panel B of FIG. 20.

Regarding “GIYGYRLRRKWEEKIPNPSKSHLFQNGSAELWP [peptide 4, βc peptide, N-terminal truncation]”, in experiment [1], the “binding in the SPA, comparison of peptides” value is “binds better than peptide 3”. Moreover, the “suitability in the SPA” value in experiment [1] is given as “two most optimal”. In addition, the signal-to-noise ratio in experiment [1] (40 pmole (0.17 μg) peptide per reaction, without optimization) was 4.5; in experiment [1] (BSA 0.1 mg/ml or 0.5 mg/ml (either concentration), FIG. 16) it was 5; in experiment [1] (BSA experiment, no additions, FIG. 16), 4; in experiment [1] (excess peptide, no κ-casein, FIG. 15), 10; in experiment [1] (excess peptide, κ-casein 1 mg/ml during peptide binding to beads, FIG. 15), 35. For the same sequence, the “signal to noise ratio” value in experiment [1] (5.5 nM JAK2, κ-casein present, FIG. 17B) stood at 14. Further, the “amount of JAK2 at which binding reaches saturation” value in experiment [1] (binding curve, peptide 4, FIG. 17A) is “about 40 pmole”. Besides, the “apparent Kd” value in experiment [1] (binding curve, varying labeled JAK2, FIG. 17A) is “very low apparent Kd”. For the same sequence, in experiment [1] (less than saturating JAK2, FIG. 17B), the “strength of binding (linear increase with JAK2)” value is reported as “very strong”. The “activity profile in binding 3H-JAK2 (signal)” value in experiment [1] (less than saturating peptide, 40 pmole per reaction, 3H-JAK2, FIG. 12A) was “peptide 4>peptide 3>peptide 5>peptide 6>peptides 1 and 2”. Also, the “overall signals and signal-to-noise ratios, peptide and labeled JAK2 mixed prior to adding beads” value in experiment [1] (mixed one hour before beads, versus peptide bound to bead first, FIG. 13) is “lower overall signals and signal-to-noise ratios”. For the same sequence, the “activity profile, peptide and labeled JAK2 mixed prior to adding beads” value in experiment [1] (mixed one hour before beads, FIG. 13) is given as “same activity profile”. The “activity profile in binding 3H-NJAK2 (signal)” value in experiment [2] was “peptide 4>peptide 3>peptide 5>peptide 6>peptides 1 and 2”. Also, the “binding of JAK2 by peptide in solution” value in experiment [3] (conclusion from FIG. 20) is on record as “binds JAK2 very poorly”. In experiment [3] (conclusion from FIG. 20A), the “competition by peptide in solution, bound to streptavidin or not” value is “competes poorly”. Further, the “competition for binding of JAK2” value is “does compete for binding JAK2 but very weakly” in experiment [3] (peptide/streptavidin 4:1, beads with 1 mg/ml κ-casein, FIG. 20B); “only minimal, if any, competition was seen” in experiment [3] (soluble peptide 4/streptavidin 1:1 and 4:1, no κ-casein, FIG. 20A).
